Test results taken from the DeepSol protein solubility set.

Experiment: soluble on expression in E. coli; label from the status in PepcDB or PDB records

## MGSDKIHHHHHHMWIEQRLWTPEGGWTVTETSPGKASLVLYFAAPGALTPESILADLRVAYGNAPILGCTTGGEILGPEVLDDSIVVSALGFDKASVRMASRDLSDVSQSRETGAALARELAGEDLRAIFILSDGTKVNGDSLVAGCLSAVTSDVVVTGGLAGDGARFQTTAVGCSDAMRPGRVAAVGFYGDSLAIGHGSFGGWDEFGPPRTITRSAANVLYELDGEPALDLYKRYLGEEAQGLPGSALLFPLSIRPSGDDAGAEVVRTIVGIDEEAKSMIFAGDVPTGHLARLMRGNFDNLVDGAGRAAEAAAAIKGPSLGLLVSCIGRKLLMGQRIAEEVEIVSDVLGKEASLMGFYSYGEISPHGFTGKCELHNQTMTITTISER
  soluble on expression in E. coli: not soluble

## MHNNENVSGISAYLLGLIWGDGGLYKLKYKGNRSEYRVVITQKSENLIKQFIAPRMQFLIDELNVKSKIQIVKGDTRYELRVSSKKLYYYFANMLERIRLFNGNRFLAYLAGIVDGDGSIIAQIKPNQSYKFKHQLSLTFQVTQKTERRWFLDKLVDEIGVGYVRDRGSVSDYILSEIKPLHNFLTQLQPFLNFKQKQANLVLKIIEQLPSAKESPDKFLEVCTWVDQIAALNDSKTRKTTSETVRAVLDSLSEKKKSSP
  soluble on expression in E. coli: soluble

## MTQIVVGENEHIESALRRFKREVSKAGIFQDMRKHRHFETPIEKSKRKKLALHKQSKRRFRTLEHHHHHH
  soluble on expression in E. coli: not soluble

## MSAAGDLRRRARLSRLVSFSASHRLHSPSLSDEENLRVFGKCNNPNGHGHNYKVVVTVHGEIDPVTGMVMNLTDLKEYMEEAIMKPLDHKNLDLDVPYFADAVSTTENVAVYIWESLQKLLPVGALYKVKVFETDNNIVVYKGE
  soluble on expression in E. coli: soluble

## MAHHHHHHMSAPTALTVPRRSASDAALADATRRELEEEMGRSDKPEQPTPPAGWQVVRKPGTCTFDLTKSFEGEDLVVRYSTNQDSDKANSHNIFVYITQKNGQTMQADLSIEEGELVLNNIRFYDEAALAKDTGAEAEAKRNELYTGPLVHELDYDLLNCVMTYLEKRGVDEKLGEFVVLYSFWAEQQDYEAWLTTMNKFAS
  soluble on expression in E. coli: soluble

## SLLGGPGIELFRRLVEEYEREHDVPMADIAAALAVQCRGGEAFLMAPDPPLSRRNRDQRRDRPQRPKRRPDLTTYRVAVGKRHKIGPGAIVGAIANEGGLHRSDFGQIRIGPDFSLVELPAKLPRATLKKLAQTRISGVLIDLRPYRPPDAARRHNGGKPRRKHVG
  soluble on expression in E. coli: not soluble

## MAHHHHHHMRQTGSFQPFFLRGKVVHGKGRGGSQLGFPTANIGLDKDVMECLQPYKNLVVYGWGTVSQVPGKERESFGPYPFAASIGFNMQFDEKTLTVEPYFLHEFGWDFYGAVVKIIVLGEIRSMGSFHSLQALVDTIKSDVQFTRDMLQKPQLQEFSRHSLFESPSSTIPYFEDLPDE
  soluble on expression in E. coli: soluble

## MLHIVKHLEKLPLLSAYLLDGDVVLLTENAVYAAAVHSPYQASINDQNLWLVLYEDLHARGWLEKCDPRISVVTMSDFVDLTVTHDKSITW
  soluble on expression in E. coli: not soluble

## MGSDKIHHHHHHMNNESLTLDAYPVEVEFPDIRPYAEGNCGIPYVFTFDSGVAGPHVMVNALTHGNEVCGAITVKGLLDAGVKPRRGRVTFAFANVDAYACFDPARPDASRFVDQDFNRVWTSAVLDDASRDSSELRRARAMRPVIDTVDLLLDLHSMHEKSRPLIVSGPLDKGIALARALGAPADVIVDEGHPEGRRMRDYADFGDPASARNALLIECGQHWETSAVTVARDSAARFLLNAGVIDAQDVPTGWLQPLAATQRVVRVTEPVVANSMDFRFAGPYTGLETFMEAGTVIGWRDGEPVVTPYPNCVLVMPSLRQLRPGVTVVRLGQLEA
  soluble on expression in E. coli: not soluble

## MGSDKIHHHHHHMTTIPSTAEAKLEMLTTINRAIAGSRPEALPPYPVPAPLSRAEILHQFEDRILDYGAAYTHVSAAELPGAIAKALGNARRVIVPAGIPAPWLTVGMDVLRDEPPLSHAELDRADAVLTGCAVAISETGTIILDHRADQGRRALSLIPDFHICVVREDQIVQTVREGVEAVAASVREGRPLTWLSGGSATSDIELVRVEGVHGPRRLQVIVVG
  soluble on expression in E. coli: soluble

## MRPPRPPRPPSPQRSAELRRRFAQEARSERPDLATLCLLVGAEADGTLDEAGLDAAQVELDRLAGELPFRPGTPRAWAVALRDLLGERYGFHGVAADYQRLESSLLHEVVRRRRGLPILLSVVWLEVARRAGAPVYGVALPGHFVVGFGGESAAASGPGSAPLGERVLVDPYDGGRLLSGTDAEALVAGATGAELRASMLEPAAPLDVVARVLNNIRAWAAARPEQSAVGLWAVELALLLPAHAARLRYERAVLLVQRGEFAAGAGELEAYAEVVEAVDEAVAEEVRGEARTARAMLN
  soluble on expression in E. coli: not soluble

## MSLYLFGESDHYLWLPRGLLYPLQDKFKQVSVEDRRKVQRSISVEFKGELTFEQELALSDMTSKENGLLHAETGFGKTVLGAALISERKTKTIILVHNKQLLDQWLDRLNCFLTFEEEEAIRYTASGREKVIGYVGQYGGTKKWLSKLVDVVMIQSLFKLENSQSLLDEYEMMIVDECHHVSALMFEKVVAQFRGKYLYGLTATPERKNGHEPIVFQRIGEILHTADKREGHHHHHH
  soluble on expression in E. coli: not soluble
